In PMC9481740 (The Journal of Cell Biology, 2022):
Where “and” joins values, the source holds several entries; their conditions need not be identical. Identical values can stand only once.

B1: ^mChSpindly^76–605 (domain or fragment, human, UniProt Q96EA4 76-605, looked up)
chain: LSCECEAIKQQQKMHLEKLEEQLSRSHGQEVNELKTKIEKLKVELDEARLSEKQLKHQVDHQKELLSCKSEELRVMSERVQESMSSEMLALQIELTEMESMKTTLKEEVNELQYRQEQLELLITNLMRQVDRLKEEKEEREKEAVSYYNALEKARVANQDLQVQLDQALQQALDPNSKGNSLFAEVEDRRAAMERQLISMKVKYQSLKKQNVFNREQMQRMKLQIATLLQMKGSQTEFEQQERLLAMLEQKNGEIKHLLGEIRNLEKFKNLYDSMESKPSVDSGTLEDNTYYTDLLQMKLDNLNKEIESTKGELSIQRMKALFESQRALDIERKLFANERCLQLSESENMKLRAKLDELKLKYEPEETVEVPVLKKRREVLPVDITTAKDACVNNSALGGEVYRLPPQKEETQSCPNSLEDNNLQLEKSVSIYTPVVSLSPHKNLPVDMQLKKEKKCVKLIGVPADAEALSERSGNTPNSPRLAAESKLQTEVKEGKETSSKLEKETCKKLHPILYVSSKSTPETQCPQQ
notes: source: E. coli BL21 CodonPlus, purified (HisTrap, Resource Q, Superdex 200); not shown: mCherry, N-terminal, kept
B2: ^mChSpindly^ΔRV (natural protein, human, UniProt Q96EA4 1-605, looked up)
chain: MEADIITNLRCRLKEAEEERLKAAQYGLQLVESQNELQNQLDKCRNEMMTMTESYEQEKYTLQREVELKSRMLESLSCECEAIKQQQKMHLEKLEEQLSRSHGQEVNELKTKIEKLKVELDEARLSEKQLKHQVDHQKELLSCKSEELRVMSEQESMSSEMLALQIELTEMESMKTTLKEEVNELQYRQEQLELLITNLMRQVDRLKEEKEEREKEAVSYYNALEKARVANQDLQVQLDQALQQALDPNSKGNSLFAEVEDRRAAMERQLISMKVKYQSLKKQNVFNREQMQRMKLQIATLLQMKGSQTEFEQQERLLAMLEQKNGEIKHLLGEIRNLEKFKNLYDSMESKPSVDSGTLEDNTYYTDLLQMKLDNLNKEIESTKGELSIQRMKALFESQRALDIERKLFANERCLQLSESENMKLRAKLDELKLKYEPEETVEVPVLKKRREVLPVDITTAKDACVNNSALGGEVYRLPPQKEETQSCPNSLEDNNLQLEKSVSIYTPVVSLSPHKNLPVDMQLKKEKKCVKLIGVPADAEALSERSGNTPNSPRLAAESKLQTEVKEGKETSSKLEKETCKKLHPILYVSSKSTPETQCPQQ
notes: also called ^mChSpindly^∆RV; source: E. coli BL21 CodonPlus, purified (HisTrap, Resource Q, Superdex 200); not shown: mCherry, N-terminal, kept
B3: ^mChSpindly^CC2* (R295E-K297E) (natural protein, human, UniProt Q96EA4 1-605, looked up)
chain: MEADIITNLRCRLKEAEEERLKAAQYGLQLVESQNELQNQLDKCRNEMMTMTESYEQEKYTLQREVELKSRMLESLSCECEAIKQQQKMHLEKLEEQLSRSHGQEVNELKTKIEKLKVELDEARLSEKQLKHQVDHQKELLSCKSEELRVMSERVQESMSSEMLALQIELTEMESMKTTLKEEVNELQYRQEQLELLITNLMRQVDRLKEEKEEREKEAVSYYNALEKARVANQDLQVQLDQALQQALDPNSKGNSLFAEVEDRRAAMERQLISMKVKYQSLKKQNVFNREQMQEMELQIATLLQMKGSQTEFEQQERLLAMLEQKNGEIKHLLGEIRNLEKFKNLYDSMESKPSVDSGTLEDNTYYTDLLQMKLDNLNKEIESTKGELSIQRMKALFESQRALDIERKLFANERCLQLSESENMKLRAKLDELKLKYEPEETVEVPVLKKRREVLPVDITTAKDACVNNSALGGEVYRLPPQKEETQSCPNSLEDNNLQLEKSVSIYTPVVSLSPHKNLPVDMQLKKEKKCVKLIGVPADAEALSERSGNTPNSPRLAAESKLQTEVKEGKETSSKLEKETCKKLHPILYVSSKSTPETQCPQQ
notes: as for B1
B4: ^mChSpindly^∆276–306 (natural protein, human, UniProt Q96EA4 1-605, looked up)
chain: MEADIITNLRCRLKEAEEERLKAAQYGLQLVESQNELQNQLDKCRNEMMTMTESYEQEKYTLQREVELKSRMLESLSCECEAIKQQQKMHLEKLEEQLSRSHGQEVNELKTKIEKLKVELDEARLSEKQLKHQVDHQKELLSCKSEELRVMSERVQESMSSEMLALQIELTEMESMKTTLKEEVNELQYRQEQLELLITNLMRQVDRLKEEKEEREKEAVSYYNALEKARVANQDLQVQLDQALQQALDPNSKGNSLFAEVEDRRAAMERQLISMKGSQTEFEQQERLLAMLEQKNGEIKHLLGEIRNLEKFKNLYDSMESKPSVDSGTLEDNTYYTDLLQMKLDNLNKEIESTKGELSIQRMKALFESQRALDIERKLFANERCLQLSESENMKLRAKLDELKLKYEPEETVEVPVLKKRREVLPVDITTAKDACVNNSALGGEVYRLPPQKEETQSCPNSLEDNNLQLEKSVSIYTPVVSLSPHKNLPVDMQLKKEKKCVKLIGVPADAEALSERSGNTPNSPRLAAESKLQTEVKEGKETSSKLEKETCKKLHPILYVSSKSTPETQCPQQ
notes: predominantly dimeric, with a tendency to form tetramers; source: E. coli BL21 CodonPlus, purified (HisTrap, Resource Q, Superdex 200); not shown: mCherry, N-terminal, kept

Target: the molecule itself
Assay: mass photometry; Refeyn TwoMP; sample diluted to a final 10 nM in Spindly buffer (50 mM Hepes pH 8.0, 250 mM NaCl, 2 mM TCEP); crosslinked samples measured after dilution beside untreated controls
B1 was tested, and the “stoichiometry N” value was 2.
For B2, the “stoichiometry N” value was 2.
B3 was tested, and the “stoichiometry N” value was 2.
In the case of B4, the “stoichiometry N” value is reported as 2 and 4.
